PMC3181147 (Structure (London, England : 1993), 2010)

Target: the molecule itself
Assay: AUC

B1: phosphorylated intracellular domain of PknB_(1-330) (kinase domain and juxtamembrane linker) (domain or fragment)
chain: MTTPSHLSDRYELGEILGFGGMSEVHLARDLRLHRDVAVKVLRADLARDPSFYLRFRREAQNAAALNHPAIVAVYDTGEAETPAGPLPYIVMEYVDGVTLRDIVHTEGPMTPKRAIEVIADACQALNFSHQNGIIHRDVKPANIMISATNAVKVMDFGIARAIADSGNSVTQTAAVIGTAQYLSPEQARGDSVDARSDVYSLGCVLYEVLTGEPPFTGDSPVSVAYQHVREDPIPPSARHEGLSADLDAVVLKALAKNPENRYQTAAEMRADLVRVHNGEPPEAPKVLTDAERTSLLSSAAGNLSGPRTDPLPRQDLDDTDRDRSIGSVG
Kd: ~2900 µM
